In the DeepSol protein solubility set:

Experiment: soluble on expression in E. coli; label from the status in PepcDB or PDB records

Row | Sequence | soluble on expression in E. coli
1 | MGHHHHHHSHMRIVMKFGGVSVKDGENIYHCANLVKKFSEGNEVVVVVSAMQGVTDALLKAAHRCCSEPSAGFIKMFIADMMKRHYEAIEYAVRNDEIKAKVIAAVERLLDELEKVLLGISYLGELTRRSEDYIVSFGERLSAPIFSAALLSLGVDSVALTGGDAGIITDRNFGRAKPLPGVYTTIRNRLEPLLTIKKTIPVVTGFIGATDDGSITTLGRGGSDYTATILAAALDADEVWLWKEVDGIMTCDPKYVPNARVIPEISYQEAMELSHFGAKILHPRALEPVMRKNIPVRIKN | not soluble
2 | MGHHHHHHSHMRKLVIPKYYGRPSIGLALFGCTNRPFYHVCVFPDRALGRRYEGNILEQVGTFDPLPNQKNEKLVALNFGRLKYWIGERNAHISVPVLELLGERRNCLSGLFPIHPKSFIRAKDNRALIADQQLKVAAEAAEAEKVAQEQASTGAAATSHPQ | soluble
3 | MGHHHHHHSHMSSKHDYTNPPWNAKVPVQRAMQWMPISQKAGAAWGVDPQLITAIIAIESGGNPNAVSKSNAIGLMQLKASTSGRDVYRRMGWSGEPTTSELKNPERNISMGAAYLNILETGPLAGIEDPKVLQYALVVSYANGAGALLRTFSSDRKKAISKINDLDADEFLEHVARNHPAPQAPRYIYKLEQALDAM | soluble
4 | MGHHHHHHSHMVLLHVKRGDESQFLLQAPGSTELEELTVQVARVYNGRLKVQRLCSEMEELAEHGIFLPPNMQGLTDDQIEELKLKDEWGEKCVPSGGAVFKKDDIGRRNGQAPNEKMKQVLKKTIEEAKAIISKKQVEAGVCVTMEMVKDALDQLRGAVMIVYPMGLPPYDPIRMEFENKEDLSGTQAGLNVIKEAEAQLWWAAKELRRTKKLSDYVGKNEKTKIIAKIQQRGQGAPAREPIISSEEQKQLMLYYHRRQEELKRLEENDDDAYLNSPWADNTALKRHFHGVKDIKWRPR | not soluble
5 | MGHHHHHHSHMYKRCKRGQDKCMMRPLSNPLTEAYNVQNLYQCLNCDDYHLCNGSLNCDPLVDREGIVCTVTGKYIQCNVRESPMCGAACLDVDIHPEDNTDCILRALFGDIVDIINKLDDIAEIKDKILAGDSLNEHIKKKIECTFPMCANIINCNSQGYSILCSMFVHIIMSIYANKTIYGHMLFKCTRNKKYDTIAKKIREKWMYLE | not soluble
6 | MGHHHHHHSHNSSSCPEIQGFLHVKELGKKSWKKLYVCLRRSGLYCSTKGTSKEPRHLQLLADLEDSNIFSLIAGRKQYNAPTDHGLCIKPNKVRNETKELRLLCAEDEQTRTCWMTAFRLLKYGMLLYQNYRIPQQRKALLSPFSTPVRSVSENSLVAMDFSGQTGRVIENPAEAQSAALEEGHAWRKRSTRMNILGSQSPLHPSTLSTVIHRTQ | not soluble
7 | MGHHHHHHSHQADEGQARKSQLQRRFKEFLRQYRVGTDRTGFTFKYRDELKRHYNLGEYWIEVEMEDLASFDEDLADYLYKQPAEHLQLLEEAAKEVADEVTRPRPSGEEVLQDIQVMLKSDASPSSIRSLKSDMMSHLVKIPGIIIAASAVRAKATRISIQCRSCRNTLTNIAMRPGLEGYALPRKCNTDQAGRPKCPLDPYFIMPDKCKCVDFQTLKLQELPDAVPHGEMPRHMQLYCDRYLCDKVVPGNRVTIMGIYSIKKFGLTTSRGRDRVGVGIRSSYIRVLGIQVDTDGSGR | not soluble
8 | MGHHHHHHSHQKGRYTELVEEKYKLFGELYKTFTKGGLICCSIESPNQEEQEVETDWGLLKGHTYTMTDIRKIRLGERLVEVFSAEKVYMVRLRNPLGRQEWSGPWSEISEEWQQLTASDRKNLGLVMSDDGEFWMSLEDFCRNFHKLNVCRNVNNPIFGR | not soluble
9 | MGHHHHHHSHREMVLQFLAFSRVAQDCRGTSWPKTVYFTFQFYRFPPATTPRLQLVQLDEAGQPSSGALTHILVPVSRDGTFDAGSPGFQLRYMVGPGFLKPGERRCFARYLAVQTLQIDVWDGDSLLLIGSAAVQMKETSHIFSVSQ | not soluble
10 | MGHHHHHHSHSAAKGTGITRKKTFKEVANAVKISASLMGTVMAKRVKATILYGSETGRAQSYAQQLGRLFRKAFDPRVLCMDEYDVVSLEHETLVLVVTSTFGNGDPPENGESFAAALMEMSGPYN | not soluble
11 | MGHHHHHHSHSKEITVRGHNCPKPVLNFYEANFPANVMDVIARQNFTEPTAIQAQGWPVALSGLDMVGVAQTGSGKTLSYLLPAIVHINHQPFLERGDGPICLVLAPTRELAQQVQQVAAEYCRACRLKSTCIYGGAPKGPQIRDLERGVEICIATPGRLIDFLECGKTNLRRTTYLVLDEADRMLDMGFEPQIRKIVDQIRPDRQTLMWSATWPKEVRQLAEDFLKDYIHINIGALELSANHNILQIVDVCHDVEKDEKLIRLMEEIMSEKENKTIVFVETKRRCDELTRKMRRDGWPAMGIHGDKSQQERDWVLNEFKHGKAPILIATDVASRGLDVEDVKFVINYDYPNSSEDYIHRIGRTARSTKTGTAYTFFTPNNIKQVSDLISVLR | not soluble
12 | MGHHKAMPYADVAAFIIELRKREAVAATALEFTILTAARSGETLGAKWHEIDWKDKIWTVPAERMKAAREHRVPLSSRTITILKKLAEFGSDENSFVFPGQKPGKPLSVMAMDMVLRRMEVDVTVHGFRSSFRDWCGEVSNFPRDVAEAALAHLEHHHHHH | soluble
13 | MGIFSRFADIVNSNISALLDKAEDPEKMIRLIIQEMEDTLVEVRTNSAKAIADKKELARKVEMLEEQIGEWGQKASLALVKEREDLARAALIEKQKLEQVVKGLHTEQTLVEETINKLTGEIGKLENKIAETRAKQQALAIRNQTASNRRDVQKHLHTSRTNEAMAKFDQYSRKIDEMEAEADLYAQTGNAKSLEQEFAELQAQDEIEKELAKLKEQMSSQDKLEHHHHHH | soluble
14 | MGIIDKIKAIEEEMARTQKNKATEHHLGLLKGKLARYRQQLLADEAGSGGGGGSGFEVAKSGDARVVLIGYPSVGKSSLLGKITTTKSEIAHYAFTTLTSVPGVLKYQGAEIQIVDLPGIIYGASQGKGRGRQVVATARTADLVLMVLDATKSEHQRASLEKELENVGIRLNKEKPNIYYKKKETGGVKVTFTSPPKTNLTEQAIKMILRDYRIHNAEVLVRDDQCTIDDFIDVINEQHRNYVKCLYVYNKIDAVSLEEVDKLAREPNTVVMSCEMDLGLQDVVEEIWYQLNLSRVYTKKRGVRPVFDDPLVVRNNSTIGDLCHGIHRDFKDKFKYALVWGSSAKHSPQKCGLNHRIDDEDVVSLFAK | soluble
15 | MGIMEAERKTTGWAARDPSGILSPYTYTLRETGPEDVNIRIICCGICHTDLHQTKNDLGMSNYPMVPGHEVVGEVVEVGSDVSKFTVGDIVGVGCLVGCCGGCSPCERDLEQYCPKKIWSYNDVYINGQPTQGGFAKATVVHQKFVVKIPEGMAVEQAAPLLCAGVTVYSPLSHFGLKQPGLRGGILGLGGVGHMGVKIAKAMGHHVTVISSSNKKREEALQDLGADDYVIGSDQAKMSELADSLDYVIDTVPVHHALEPYLSLLKLDGKLILMGVINNPLQFLTPLLMLGRKVITGSFIGSMKETEEMLEFCKEKGLSSIIEVVKMDYVNTAFERLEKNDVRYRFVVDVEGSNLDA | soluble
16 | MGINVQFRPMTIHDIDEVVQVERASFTSPWSRESFYNELMYNRYAKYIVMVYNGRIIGYGGMWLVIDEAHVTNVAVLPQFRGQKLGEALMRRLMDMARQHGAATMTLEVRVSNHVAQSLYRKLGFRNGGIRKRYYPDNFEDALVMWVKLR | not soluble
17 | MGKEKSHINVVVIGHVDSGKSTTTGHLIYKCGGIDKRTIEKFEKEAAELGKGSFKYAWVLDKLKAERERGITIDIALWKFETPKYQVTVIDAPGHRDFIKNMITGTSQADCAILIIAGGVGEFEAGISKDGQTREHALLAFTLGVRQLIVAVNKMDSVKWDESRFQEIVKETSNFIKKVGYNPKTVPFVPISGWNGDNMIEATTNAPWYKGWEKETKAGVVKGKTLLEAIDAIEQPSRPTDKPLRLPLQDVYKIGGIGTVPVGRVETGVIKPGMVVTFAPAGVTTEVKSVEMHHEQLEQGVPGDNVGFNVKNVSVKEIRRGNVCGDAKNDPPKGCASFNATVIVLNHPGQISAGYSPVLDCHTAHIACRFDELLEKNDRRSGKKLEDHPKFLKSGDAALVKFVPSKPMCVEAFSEYPPLGRFAVRDMRQTVAVGVIKSVDKTEKAAKVTKAAQKAAKK | soluble
18 | MGKIIAIANQKGGVGKTTTSVNLGAGLAQVGKKVLLVDIDAQGNATTGVGIEKSELDQCIYNVLVEDADVQGVIQKTATENLDVLPATIQLAGAEIELVPTISREVRLQRALQPVRDEYDYIIIDCPPSLGLLTINALTAADSVIIPVQCEYYALEGLSQLLNTVRLVQKHLNKNLAIQGVLLTMLDARTNLGIQVIDEVKKYFRDKVYRSIIPRNVRLSEAPSHGKPIMQYDAKSRGAEVYIDLAEEVIAGG | not soluble
19 | MGKIVLTYRMPHNWNINPFLKEYQRLLQRAIDEIWDNTSWKEKKVKHRYSLGNEEYRYYETIRLIPYFPQSNDFKRGLRNKLLREWPFAKHYVDSAIKTAYSILKSWRQNYLKGRRKRVKPVVKRKFVRVKTTLMKVEGSKIRITIKPREEYLELDFSREWFYERIKDWKVGELIIRERDILLTFSKEVEFSGRIKIGIDSNLTSLDVYHPEKGWIRVDLSELHRISETYDRIIDMLKSIQRKAPKRIGLLLEKYWTRRRNRIEDYLNKLAVQLSREFPDAIFIFEGLNKFKMLQNGSRKFNRKLSRATWKKIVGKLSYRVPIEFVNPAYTSSTCPICGSKLESRNGLVECFNCGFKADRQFVGAFNILMRGLGVALSGVERDDLPPNEPRGELNAMRPKSVVRVDLNGRRFTHIHSLEHHHHHH | soluble
20 | MGKKELKRGLVVDREAQMIGVYLFEDGKTYRGIPRGKVLKKTKINAGDYVWGEVVDPNTFAIEEVEERKNLLIRPKVANVDRVIIVETLKMPEFNNYLLDNMLVVYEYFKVEPVIVFNKIDLLNEEEKKELERWIAFTGMRATTFSRLEHHHHHH | not soluble
21 | MGKLAFLFPGQGSQAVGMGKQLAENNKEVANVFAKADEVLQDSLSEVIFEGSQEKLTLTTNAQPALLTTSFAILTALKEYDITPDFVAGHSLGEYSALVAAGALTFEDAVYAVRKRGEYMEEAVPGGEGAMAAILGADPHMLKRVTEEVTGEGYAVQIANMNSTKQIVISGTKQGVEIASQRAKENGAKRAIPLKVSGPFHSALMKPAAEKFQSVLNEITIQDTNIPVIANVTADVITSGAHIQEKLIEQLYSPVLWYPSIEYMVNQGVDTFIEIGPGKVLAGLMKSIDSSVKAYAIYDEETLKDTISNLRGEN | not soluble
22 | MGKVYKKVELVGTSEEGLEAAIQAALARARKTLRHLDFFEVKEIRGTIGEAGVKEYQVVLEVGFRLEET | soluble
23 | MGLDISDETLKIQKKKENENRVIILMIPGNPGNEGFYAHFGREVLQNLIKKDEDEQKNLKNQYLFYTVSSLNHVRMPDHLKDDGEHRNHDRISLEEQVNHKLSFVKEHLPRGKQLYILGHSIGSYMMLRIIPEVIKEGFHVEKAVGLFPTIVHMANSPNGKRLHGTLATLNHHDWLTKTICWWVDYLPNSIKKFLVGLNLRHPNTPPEIVDAAVELVHMDVFRNIVHMSNDELDIVLDLDERLLEKQDVVHFYYGLKDGWCPVQHGYSMRDRLGEEQVTLDEDNCEHAFVISEGDIMARNVIKYFD | not soluble
